Residue numbers refer to the chain shown, from its start. In names and notes the source's numbering stands.

In test [1] the target is DARPin-tubulin complex (used in ITC) ( (porcine or bovine brain), UniProt Q6B856 1-445). The test is described as follows: ITC. On the technique in general: ITC needs no label: the signal is the heat of the interaction.
For test [2], the target named is tubulin heterodimer (porcine/bovine brain tubulin) ( (porcine or bovine brain), UniProt Q6B856 1-445). Nature of the test: ITC.
tubulin heterodimer (porcine/bovine brain tubulin), sequence (chain, as listed by the source, chain 1 of 2): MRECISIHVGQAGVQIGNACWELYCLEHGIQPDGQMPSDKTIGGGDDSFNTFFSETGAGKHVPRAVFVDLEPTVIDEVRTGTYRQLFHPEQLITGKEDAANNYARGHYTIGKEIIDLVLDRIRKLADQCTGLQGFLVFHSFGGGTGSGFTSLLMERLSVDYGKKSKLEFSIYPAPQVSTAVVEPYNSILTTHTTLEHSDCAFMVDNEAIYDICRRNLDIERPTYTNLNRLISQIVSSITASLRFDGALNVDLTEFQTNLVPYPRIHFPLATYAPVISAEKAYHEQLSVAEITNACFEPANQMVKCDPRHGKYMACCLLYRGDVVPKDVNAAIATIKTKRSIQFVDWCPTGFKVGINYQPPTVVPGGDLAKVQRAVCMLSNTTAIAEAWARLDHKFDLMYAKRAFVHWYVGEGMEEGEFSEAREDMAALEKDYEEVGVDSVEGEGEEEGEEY
tubulin heterodimer (porcine/bovine brain tubulin), sequence (Q6B856 whole entry, chain 2 of 2): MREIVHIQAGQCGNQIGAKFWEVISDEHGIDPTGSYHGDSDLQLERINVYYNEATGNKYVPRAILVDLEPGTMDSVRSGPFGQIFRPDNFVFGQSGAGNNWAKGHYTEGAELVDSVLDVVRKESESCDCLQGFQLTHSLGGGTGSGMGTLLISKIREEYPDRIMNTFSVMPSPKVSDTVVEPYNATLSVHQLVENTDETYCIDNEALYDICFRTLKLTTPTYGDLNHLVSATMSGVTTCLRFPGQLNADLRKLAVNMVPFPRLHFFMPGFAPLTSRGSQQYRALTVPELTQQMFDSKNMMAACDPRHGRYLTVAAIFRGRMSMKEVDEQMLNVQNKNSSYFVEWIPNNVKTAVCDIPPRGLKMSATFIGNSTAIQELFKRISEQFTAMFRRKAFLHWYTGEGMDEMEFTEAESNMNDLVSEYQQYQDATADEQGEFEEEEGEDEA

DARPin-tubulin complex (used in ITC), sequence (chain, as listed by the source, chain 1 of 3): as the sequence (chain, as listed by the source, chain 1 of 2) above
DARPin-tubulin complex (used in ITC), sequence (Q6B856 whole entry, chain 2 of 3): as the sequence (Q6B856 whole entry, chain 2 of 2) above
DARPin-tubulin complex (used in ITC), sequence (chain, as listed by the source, chain 3 of 3): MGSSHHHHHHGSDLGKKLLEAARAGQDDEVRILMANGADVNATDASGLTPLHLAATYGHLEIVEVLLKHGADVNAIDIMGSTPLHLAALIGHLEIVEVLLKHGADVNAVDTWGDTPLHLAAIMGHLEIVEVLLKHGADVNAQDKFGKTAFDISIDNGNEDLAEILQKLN

In general, Kd refers to the equilibrium constant for the complex coming apart. A high value points to a looser complex. As to KQPFLKRGEGLARFTNAKSKFQK [PN2-3C peptide (PN2-3's C-terminus, aa 372-394 of CPAP)], the affinity in test [1], expressed as Kd, was 3400 nM.

B1: Y341A (protein)
chain: VANIEERPIKAAIGERKQTFEDALEEQIQLEEQELKQKQLKEAEGPLPIKAKPKQPFLKRGEGLARFTNAKSKFQK
For the molecule B1, binding in test [2] was put at a Kd of 136 nM.

B2: K372E (protein)
chain: B1 chain with A23Y, K54E
B2 displayed a Kd in test [2] of 400 nM.

B3: F338A (protein)
chain: B1 chain with F20A, A23Y
For the molecule B3, in test [2], the Kd was determined as 116 nM.

B4: F385A (protein)
chain: B1 chain with A23Y, F67A
Regarding B4, in test [2], binding was characterised by a dissociation constant (Kd) of 100 nM.

B5: R378E (protein)
chain: B1 chain with A23Y, R60E
On to B5, for which, in test [2], the affinity, expressed as Kd, was 800 nM.

B6: EE349RR (protein)
chain: B1 chain with A23Y, E31R, E32R
In the case of B6, the Kd in test [2] turned out to be 256 nM.

B7: R384E (protein)
chain: B1 chain with A23Y, R66E
Regarding B7, the Kd in test [2] was 1900 nM.

B8: ED339RR (protein)
chain: B1 chain with E21R, D22R, A23Y
As to B8, in test [2], the Kd worked out at 143 nM.

B9: K377E (protein)
chain: B1 chain with A23Y, K59E
In test [2], B9 displayed a Kd of 1300 nM.

The values above are taken from publication PMC4912634 (2016).
